Results: paper PMC11333002, “Molecular dynamics simulations reveal how vinculin refolds partially unfolded talin rod helices to stabilize them against mechanical force” (PLOS Computational Biology, 2024)

Experiments:
[1] = Circular dichroism thermal denaturation; assay type: physicochemical; details: 0.45 mg/mL protein, PBS pH 7.4, 222 nm, 20–90°C
Protocol: The VD1 domain of mouse vinculin (mVD1) was obtained as a codon-optimized synthetic gene in pET151 (GeneArt). The Q19S point mutation was introduced by site-directed mutagenesis and the sequence was verified.
Proteins were purified by nickel-affinity chromatography, followed by anion exchange chromatography. Briefly, cells were thawed, supplemented with 1 mM PMSF and 0.2% v/v Triton X-100 and lysed by sonication. Cell debris were removed by centrifugation and the supernatant was filtered and loaded onto a 5 mL HisTrap HP column (Cytiva) using an AKTA Start (GE Healthcare). The column was washed with buffer containing 50 mM Tris-HCl pH 8, 600 mM NaCl, 30 mM imidazole, 4 mM MgCl2, 4 mM ATP, 5% v/v glycerol, 0.2% v/v Triton X-100 and bound protein was eluted across a 75 mL linear gradient of 0–300 mM Imidazole. Fractions containing mVD1 were pooled, supplemented with AcTEV protease (Invitrogen) to remove the His-Tag and dialyzed against 20 mM Tris-HCl pH 8, 50 mM NaCl. Protein was loaded onto a 5 mL HiTrap Q (Cytiva), eluted across a 75 mL linear gradient of 50–750 mM NaCl, dialyzed against phosphate buffered saline (PBS) pH 7.4, snap-frozen in liquid nitrogen and stored at -80°C.
Circular dichroism was performed using a JASCO J-715 spectropolarimeter with 0.45 mg/mL protein samples in PBS pH 7.4. […]

[2] = biological target: mouse talin1 R1 VBS (H4) peptide; assay: Fluorescence polarisation binding of VD1 to VBS peptide; details: fluorescein-labelled talin1 H4 peptide 700 nM, 2-fold serial dilution of protein, 25°C, triplicate, one-site total binding
Protocol: The mouse talin1 R1 VBS (H4) peptide (C-[…]) was synthesized by GLBiochem (Shanghai) with a non-native, N-terminal cysteine residue. The peptide was coupled with a maleimide-fluorescein dye (Thermo Fisher Scientific) following the manufacturers protocol. Assays were performed in triplicate with a 2-fold serial dilution of protein, with VBS peptide at 700 nM. Fluorescence polarization was measured using a CLARIOstar plate reader (BMGLabTech) at 25°C (excitation: 482 ± 8 nm; emission: 530 ± 20 nm). Data were analyzed using GraphPad Prism 8 software and Kd values were generated using the one-site total binding equation.

talin1 H12 R3 = assay: Biosensor analysis (biolayer interferometry, Octet RED384); assay type: binding; details: immobilized biotinylated H12 R3, VD1 16 μM to 15.6 nM, 28°C, pH 7.4, association 600 s, dissociation 1200 s, global fit
Protocol: Solid-phase synthesized talin1 H12 R3 (C-[…]) with free N-terminal cysteine was labelled with maleimide-PEG2-biotin (Thermo Fisher Scientific A39261). Lyophilized peptide was dissolved in PBS pH 7.4 and reduced at 100 μM peptide concentration with 250 μM TCEP in PBS supplemented with 0.25% Triton-X100 for 10 min at RT. Maleimide-PEG2-biotin was added at 5-fold molar excess (500 μM) and incubation continued for 2 hours at RT, mixing at 30 rpm. The reaction was quenched with β-mercaptoethanol added at 5-fold molar excess over maleimide-PEG2-biotin (2.5 mM) for 20 min at RT. Biotin-labelled peptide was purified using a PD10 desalting column (G25 resin, Cytiva Life Sciences) equilibrated with PBS. Elution fractions containing biotinylated peptide were identified using PageBlue-staining (Thermo Fisher Scientific) of glutaraldehyde-fixed (5%, 2 hours) Bolt BisTris Plus 4–12% SDS-PAGE gels (Thermo Fisher Scientific). The concentration of pooled elution fractions was determined using Pierce BCA microplate assay (Thermo Fisher Scientific) measured with Victor Nivo at 562 nm (PerkinElmer). Aliquoted peptide was flash-frozen with liquid nitrogen and stored at -80°C.
The binding and dissociation kinetics of recombinant WT and Q19S vinculin VD1 to talin1 H12 R3 were determined using ForteBio Octet RED384. […]

[3] = Size exclusion chromatography, oligomeric state; assay type: physicochemical; details: 100 μL at 100 μM, Superdex S200 Increase 10/300, PBS pH 7.4 with 5 mM DTT, 280 nm
Protocol: Samples of 100 μL protein at 100 μM protein concentration were injected onto a Superdex G-200 increase 10/300 (GE Healthcare) at 0.75 mL/min in PBS pH 7.4 (supplemented with 5 mM DTT) using an AKTA Pure (GE Healthcare), monitoring absorbance at 280 nm.

B1: wild-type VD1: VD1 domain of mouse vinculin; in simulations vinculin head domain 1, residues 1–252 (protein, UniProt Q64727 1-252, looked up, fragment)
chain: MPVFHTRTIESILEPVAQQISHLVIMHEEGEVDGKAIPDLTAPVAAVQAAVSNLVRVGKETVQTTEDQILKRDMPPAFIKVENACTKLVQAAQMLQSDPYSVPARDYLIDGSRGILSGTSDLLLTFDEAEVRKIIRVCKGILEYLTVAEVVETMEDLVTYTKNLGPGMTKMAKMIDERQQELTHQEHRVMLVNSMNTVKELLPVLISAMKIFVTTKNSKNQGIEEALKNRNFTVEKMSAEINEIIRVLQLTS
modifications: VD1 domain
[1]
  melting temperature, Tm: 60 °C
[2]
  Kd: 0.35 µM
talin1 H12 R3
  binding and dissociation kinetics (KD, kon, koff): did not reveal significant differences in the binding or dissociation kinetics
[3]
  oligomeric state in solution: monomeric in solution
